Assay results as given in patent publication US12624096B2, “Anti-tau antibodies and methods of use thereof” (GTInvent Limited, priority 2020, dated 2026).
Entries after “also recorded” stand apart in the source; their conditions may differ.

Tests used:
[1] = target: dGA (Homo sapiens, UniProt P10636); assay: Biacore X100 SPR, scAb captured via anti-HuCk, dGA as analyte; format: binding; conditions: dissociation rate
Experimental: Surface plasmon resonance (SPR) is widely regarded as the gold standard for real time measurement of protein-protein interactions such as antibody binding. All SPR experiments were carried out using a Biacore X100 machine and HBS EP+ running buffer (GE Healthcare). A ‘capture’ method was followed for affinity measurements, where an anti-human constant kappa chain (HuCk) antibody was conjugated to the surface of a CM5 sensor chip using an amine coupling kit and scAb molecules were immobilised via their HuCk domain. Amine coupling is a very common approach for immobilising the ligand to the chip surface. The chip surface has a dextran matrix derivatised with carboxyl groups, which after activation with N-hydroxysuccinimide (NHS) and 1-ethyl-3-(3-dimethylaminopropyl) carbodiimide (EDC), form reactive succinimide esters which allows the covalent capturing of the ligand via any available primary amine groups (e.g. Lysine) on the ligand (in this case anti-HuCk antibody). The capture antibody was diluted 1/100 in 10 mM Sodium acetate buffer pH 5.0 and passed over the activated chip surface for a period of at least 420 s. Final ligand immobilisation levels over 12,000 RU were deemed to be satisfactory.
Following immobilisation, the level of each scAb to be captured was identified using the standard SPR equation with a theoretical RMax of 100 RU. Analyte MW refers to the molecular weight of hT40 or dGA/dGAE molecules, while ligand MW refers to the molecular weight of the scAbs tested. RL is the desired capture level and S refers to the stoichiometric ratio:
The scAb to be tested was added only to flow cell 2 so that flow cell 1 could act as a control to subtract any interaction with the analyte and the chip surface. Both single and multi-cycle runs were utilised using wizards developed in the Biacore X100 control software which are both accepted methods of kinetic analysis (Karlsson, R., et al. Analyzing a kinetic titration series using affinity biosensors (2006) Analytical Biochemistry 349:136-47). The multi-cycle protocol was as follows-Three start-up cycles composed of an initial capture, to the desired level, of the scAb to be tested was performed followed by a 30 s injection of glycine buffer pH 2.0 after each cycle to regenerate the chip surface. The regeneration step removed any captured scAb whilst leaving the capture antibody intact and able to repeat the capture for the next cycle. Following three start-up cycles increasing concentrations (0.15625 nM-100 nM) of the target to be tested were added to the chip surface after the desired scAb capture. The target was added for a 120 s association period and 420 s dissociation period followed by another regeneration, 30 s injection of glycine buffer pH 2.0 in between each cycle.
The single cycle kinetics protocol was similar and utilised the same level of scAb capture. Three start-up cycles were used followed by 5 increasing concentrations of the analyte (6.25 nM-100 nM) for an association period of 120 s followed by a dissociation period of 420 s for each concentration. In single cycle kinetics the regeneration step was performed only after the final analyte concentration was added. Binding responses were analysed in Biacore X100 evaluation software and data fitted to a 1:1 binding model to obtain kinetic and affinity characterisation.

[2] = target: hT40 (Homo sapiens, UniProt P10636); assay: Biacore X100 SPR, scAb captured via anti-HuCk, hT40 as analyte; format: binding; conditions: scAb, Table 23, T441 (hT40)
Outline: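 Captured scAb on anti-HuCk CM5 surface (flow cell 1 as reference) in HBS-EP+, capture set for theoretical RMax 100 RU; hT40 injected multi-cycle (0.15625–100 nM) or single-cycle (6.25–100 nM), 120 s association, 420 s dissociation, glycine pH 2.0 regeneration. Kinetics and affinity from 1:1 binding model fit.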

[3] = test system: human tau and mouse tau; assay: Western blot of WT, L66+/+ and L1+/+ mouse brain homogenates; format: binding; conditions: 20 μg protein, 5-month-old mice
Experimental: Protein equivalent to 20 μg from each brain extract was separated using 4-20% bis-tris gels and run in 1×MES buffer.
A band is detected in each sample (WT, L66^+/+ and L1^+/+) with an apparent molecular weight of approximately 55 kDa. This band most likely corresponds to endogenous mouse tau which is of a similar size. In the L66^+/+ samples, a second band running at approximately 68 kDa is also detected. The presence of numerous other bands indicates proteolytic truncation of tau within brain homogenates.

[4] = test system: alanine substituted 13mer tau peptides; assay: Alanine scanning mutagenesis (ASM) peptide ELISA; format: binding, human; conditions: numbering according to SEQ ID NO: 1; description text 'may be'
Experimental: To further elucidate epitopes of the scAb panel, and identify the critical amino acids needed for binding, alanine scanning mutagenesis of the parent 13 aa peptides for scAbs CE2, S1D12, CA4 and S1G2 was performed. […] Briefly, 5 μg/ml streptavidin (Thermo Fisher) was adsorbed to Nunc 96-well MaxiSorp plates and following incubation at 37° C., for 1 h, the plates were washed as normal and blocked with 2% MPBS. N-terminally biotinylated peptides (Prolmmune Ltd) were added to the plates and incubated for 1 h at 37° C. Subsequently, test scAbs at starting concentrations of 100-500 nM was added and double diluted across the plate for each peptide and incubated for 1 h at 37° C. Rest of the ELISA was conducted as described above and the plates were read at absorbance 450 nm. Immunoreactivity of the scAb of interest was quantified as the % of scAb was bound for each peptide at a chosen concentration (FIG. 15-20).

hT40, sequence (P10636 1-441 isoform P10636-8): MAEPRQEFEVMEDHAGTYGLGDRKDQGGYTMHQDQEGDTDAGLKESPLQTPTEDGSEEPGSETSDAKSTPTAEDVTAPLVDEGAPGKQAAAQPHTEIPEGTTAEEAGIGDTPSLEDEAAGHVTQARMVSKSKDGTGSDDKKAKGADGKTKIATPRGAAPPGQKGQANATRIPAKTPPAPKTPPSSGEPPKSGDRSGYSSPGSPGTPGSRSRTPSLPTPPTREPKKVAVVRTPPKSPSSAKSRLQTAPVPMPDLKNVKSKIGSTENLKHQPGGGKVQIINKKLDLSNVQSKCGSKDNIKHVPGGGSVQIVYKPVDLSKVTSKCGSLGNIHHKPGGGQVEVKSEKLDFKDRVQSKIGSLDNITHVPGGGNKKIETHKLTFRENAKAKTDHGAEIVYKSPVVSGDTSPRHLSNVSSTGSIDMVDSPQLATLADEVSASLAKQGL
dGA, sequence (P10636 614-707): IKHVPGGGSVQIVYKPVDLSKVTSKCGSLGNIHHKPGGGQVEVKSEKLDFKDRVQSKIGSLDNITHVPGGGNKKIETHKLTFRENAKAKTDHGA

B1: S1D12: anti-tau clone from immunised sheep, SEQ ID NO: 32 (protein)
scFv: QVQLQESGPSLVKPSQTLSLTCTVSGFSLNNNAVGWVRQAPGKVPESLVGCSSDGTCYYNSALKSRLDITRDTSKNQISLSLSSVTTDDAAVYYCTRGHYSIYGYDYLGTIDYWGPGLLVTVSSEGKSSGASGESKVDDQAVLTQPSSVSGSLGQRVSITCSGSSSNVGGGNSVGWYQHLPGSGLKTIIYDTNSRPSGVPDRFSGSRSGNTATLTINSLQAEDEGDYYCVTGDSTTHDDLVGSGTRLTVLG
modifications: S1D12 amino acid sequence
- Kd [1]: 0.000418 s⁻¹
- ka [2]: 1.252e+06 M⁻¹ s⁻¹
- kd [2]: 0.00015 s⁻¹
- bands detected in western blot of WT, L66+/+ and L1+/+ brain homogenates [3]: numerous bands visible in each mouse sample
- Critical residues of the epitope [4]: 343 (K), 346 (F) and/or 349 (R)

B2: S1G2: anti-tau clone, SEQ ID NO: 81 (protein)
scFv: QVQLQESGPSLVKPSQTLSLTCTVSGFSLTSNSVGWVRQAPGKAPEWVAGIDTDGEEGYNPALNSRLSITRDTSKSQVSLSLSSVTSEDTAVYYCGRSYRADGLAYGYVQAIDYWGPGLLVTVSSEGKSSGASGESKVDDQAVVTQPSSVSGSLGQRVSITCSGSFIGISSVGWFQQLPGSGLRTIIVASDGRPSGVPDRFSMSKSGNTATLTISSLQAEDEADYFCGSSDRTPYTGVFGSGTRLTVLG
modifications: S1G2 amino acid sequence
- Kd [1]: 0.0003499 s⁻¹
- ka [2]: 1.057e+06 M⁻¹ s⁻¹
- kd [2]: 0.00018 s⁻¹
- bands detected in western blot of WT, L66+/+ and L1+/+ brain homogenates [3]: numerous bands visible in each mouse sample; also recorded: able to detect the pathologic 10-kDa tau fragment
- Critical residues of the epitope [4]: 370 (K) and/or 374 (H)
